# Measured values published in patent US10941182 (Amgen, dated 2021).
# Starred links: 1 amine or outer side, 2 acyl side, 3 side chain; linkers in the order of their positions; H or OH if unused. Non-standard residues stand in square brackets, D forms with d. Primed or numbered codes have the meaning given here. *: point of attachment. AC4Abu = α-carboxy-4-aminobutyric acid, O=C(C(CCN[*:1])C(=O)[*:3])[*:2]; Oic = O=C(O)[C@@H]1C[C@@H]2CCCC[C@@H]2N1; Phe(4-Cl) = N[C@@H](Cc1ccc(Cl)cc1)C(=O)O; dPhe(4-Cl) = N[C@H](Cc1ccc(Cl)cc1)C(=O)O; γGlu = O=C(O)[C@H](CCC(=O)[*:2])N[*:1]; d(β3hF) = N[C@@H](CC(=O)O)Cc1ccccc1; NMeR = CN[C@@H](CCCNC(=N)N)C(=O)O; Palmitoyl = CCCCCCCCCCCCCCCC(=O)*; αMeF = C[C@](N)(Cc1ccccc1)C(=O)O; Cha = N[C@@H](CC1CCCCC1)C(=O)O; αMeP = C[C@@]1(C(=O)O)CCCN1; β3hP = O=C(O)C[C@@H]1CCCN1; Nle = CCCC[C@H](N)C(=O)O; Pip′ = not defined here; AEEA = NCCOCCOCC(=O)O; Aib = CC(C)(N)C(=O)O; Inp = O=C(O)C1CCNCC1; Nip = nipecotic acid
# B1: SEQ ID NO: 611 (peptide)
# peptide: Palmitoyl-[γGlu][AEEA][AEEA][dQ]RP[NMeR][Cha]SHKG[Oic][Nle][β3hP][αMeF]-OH
# SMILES: CCCCCCCCCCCCCCCC(=O)N[C@@H](CCC(=O)NCCOCCOCC(=O)NCCOCCOCC(=O)N[C@H](CCC(N)=O)C(=O)N[C@@H](CCCNC(=N)N)C(=O)N1CCC[C@H]1C(=O)N(C)[C@@H](CCCNC(=N)N)C(=O)N[C@@H](CC1CCCCC1)C(=O)N[C@@H](CO)C(=O)N[C@@H](Cc1c[nH]cn1)C(=O)N[C@@H](CCCCN)C(=O)NCC(=O)N1[C@H](C(=O)N[C@@H](CCCC)C(=O)N2CCC[C@H]2CC(=O)N[C@@](C)(Cc2ccccc2)C(=O)O)C[C@@H]2CCCC[C@@H]21)C(=O)O
# B2: SEQ ID NO: 600 (peptide)
# peptide: Palmitoyl-[γGlu][AEEA][AEEA][dQ]RP[NMeR][Cha]SHKG[Oic][Nle][β3hP][dPhe(4-Cl)]-OH
# SMILES: CCCCCCCCCCCCCCCC(=O)N[C@@H](CCC(=O)NCCOCCOCC(=O)NCCOCCOCC(=O)N[C@H](CCC(N)=O)C(=O)N[C@@H](CCCNC(=N)N)C(=O)N1CCC[C@H]1C(=O)N(C)[C@@H](CCCNC(=N)N)C(=O)N[C@@H](CC1CCCCC1)C(=O)N[C@@H](CO)C(=O)N[C@@H](Cc1c[nH]cn1)C(=O)N[C@@H](CCCCN)C(=O)NCC(=O)N1[C@H](C(=O)N[C@@H](CCCC)C(=O)N2CCC[C@H]2CC(=O)N[C@H](Cc2ccc(Cl)cc2)C(=O)O)C[C@@H]2CCCC[C@@H]21)C(=O)O
# B3: SEQ ID NO: 604 (peptide)
# peptide: Palmitoyl-[γGlu][AEEA][AEEA][dQ]RP[NMeR][Cha]SHKG[Oic][Nle][Aib][dPhe(4-Cl)]-OH
# SMILES: CCCCCCCCCCCCCCCC(=O)N[C@@H](CCC(=O)NCCOCCOCC(=O)NCCOCCOCC(=O)N[C@H](CCC(N)=O)C(=O)N[C@@H](CCCNC(=N)N)C(=O)N1CCC[C@H]1C(=O)N(C)[C@@H](CCCNC(=N)N)C(=O)N[C@@H](CC1CCCCC1)C(=O)N[C@@H](CO)C(=O)N[C@@H](Cc1c[nH]cn1)C(=O)N[C@@H](CCCCN)C(=O)NCC(=O)N1[C@H](C(=O)N[C@@H](CCCC)C(=O)NC(C)(C)C(=O)N[C@H](Cc2ccc(Cl)cc2)C(=O)O)C[C@@H]2CCCC[C@@H]21)C(=O)O
# B4: SEQ ID NO: 608 (peptide)
# peptide: Palmitoyl-[γGlu][AEEA][AEEA][dQ]RP[NMeR][Cha]SHKG[Oic][Nle][Aib][αMeF]-OH
# SMILES: CCCCCCCCCCCCCCCC(=O)N[C@@H](CCC(=O)NCCOCCOCC(=O)NCCOCCOCC(=O)N[C@H](CCC(N)=O)C(=O)N[C@@H](CCCNC(=N)N)C(=O)N1CCC[C@H]1C(=O)N(C)[C@@H](CCCNC(=N)N)C(=O)N[C@@H](CC1CCCCC1)C(=O)N[C@@H](CO)C(=O)N[C@@H](Cc1c[nH]cn1)C(=O)N[C@@H](CCCCN)C(=O)NCC(=O)N1[C@H](C(=O)N[C@@H](CCCC)C(=O)NC(C)(C)C(=O)N[C@@](C)(Cc2ccccc2)C(=O)O)C[C@@H]2CCCC[C@@H]21)C(=O)O
# B5: SEQ ID NO: 617 (peptide)
# peptide: Palmitoyl-[γGlu][AEEA][AEEA][dQ]RP[NMeR][Cha]S[dH]KG[Oic][Nle][β3hP][d(β3hF)]-OH
# SMILES: CCCCCCCCCCCCCCCC(=O)N[C@@H](CCC(=O)NCCOCCOCC(=O)NCCOCCOCC(=O)N[C@H](CCC(N)=O)C(=O)N[C@@H](CCCNC(=N)N)C(=O)N1CCC[C@H]1C(=O)N(C)[C@@H](CCCNC(=N)N)C(=O)N[C@@H](CC1CCCCC1)C(=O)N[C@@H](CO)C(=O)N[C@H](Cc1c[nH]cn1)C(=O)N[C@@H](CCCCN)C(=O)NCC(=O)N1[C@H](C(=O)N[C@@H](CCCC)C(=O)N2CCC[C@H]2CC(=O)N[C@@H](CC(=O)O)Cc2ccccc2)C[C@@H]2CCCC[C@@H]21)C(=O)O
# B6: SEQ ID NO: 610 (peptide)
# peptide: Palmitoyl-[γGlu][AEEA][AEEA][dQ]RP[NMeR][Cha]SHKG[Oic][Nle][αMeP][αMeF]-OH
# SMILES: CCCCCCCCCCCCCCCC(=O)N[C@@H](CCC(=O)NCCOCCOCC(=O)NCCOCCOCC(=O)N[C@H](CCC(N)=O)C(=O)N[C@@H](CCCNC(=N)N)C(=O)N1CCC[C@H]1C(=O)N(C)[C@@H](CCCNC(=N)N)C(=O)N[C@@H](CC1CCCCC1)C(=O)N[C@@H](CO)C(=O)N[C@@H](Cc1c[nH]cn1)C(=O)N[C@@H](CCCCN)C(=O)NCC(=O)N1[C@H](C(=O)N[C@@H](CCCC)C(=O)N2CCC[C@@]2(C)C(=O)N[C@@](C)(Cc2ccccc2)C(=O)O)C[C@@H]2CCCC[C@@H]21)C(=O)O
# B7: SEQ ID NO: 587 (peptide)
# peptide: Palmitoyl-[AC4Abu][AEEA][AEEA][dQ]RP[NMeR][Cha]SHKG[Oic][Nle][Inp][Phe(4-Cl)]-OH
# SMILES: CCCCCCCCCCCCCCCC(=O)NCCC(C(=O)O)C(=O)NCCOCCOCC(=O)NCCOCCOCC(=O)N[C@H](CCC(N)=O)C(=O)N[C@@H](CCCNC(=N)N)C(=O)N1CCC[C@H]1C(=O)N(C)[C@@H](CCCNC(=N)N)C(=O)N[C@@H](CC1CCCCC1)C(=O)N[C@@H](CO)C(=O)N[C@@H](Cc1c[nH]cn1)C(=O)N[C@@H](CCCCN)C(=O)NCC(=O)N1[C@H](C(=O)N[C@@H](CCCC)C(=O)N2CCC(C(=O)N[C@@H](Cc3ccc(Cl)cc3)C(=O)O)CC2)C[C@@H]2CCCC[C@@H]21
# B8: SEQ ID NO: 603 (peptide)
# peptide: Palmitoyl-[γGlu][AEEA][AEEA][dQ]RP[NMeR][Cha]SHKG[Oic][Nle][Inp][dPhe(4-Cl)]-OH
# SMILES: CCCCCCCCCCCCCCCC(=O)N[C@@H](CCC(=O)NCCOCCOCC(=O)NCCOCCOCC(=O)N[C@H](CCC(N)=O)C(=O)N[C@@H](CCCNC(=N)N)C(=O)N1CCC[C@H]1C(=O)N(C)[C@@H](CCCNC(=N)N)C(=O)N[C@@H](CC1CCCCC1)C(=O)N[C@@H](CO)C(=O)N[C@@H](Cc1c[nH]cn1)C(=O)N[C@@H](CCCCN)C(=O)NCC(=O)N1[C@H](C(=O)N[C@@H](CCCC)C(=O)N2CCC(C(=O)N[C@H](Cc3ccc(Cl)cc3)C(=O)O)CC2)C[C@@H]2CCCC[C@@H]21)C(=O)O
# Molecular target: T1, human APJ receptor (human, UniProt P35414 1-380)
# T1 sequence (looked up): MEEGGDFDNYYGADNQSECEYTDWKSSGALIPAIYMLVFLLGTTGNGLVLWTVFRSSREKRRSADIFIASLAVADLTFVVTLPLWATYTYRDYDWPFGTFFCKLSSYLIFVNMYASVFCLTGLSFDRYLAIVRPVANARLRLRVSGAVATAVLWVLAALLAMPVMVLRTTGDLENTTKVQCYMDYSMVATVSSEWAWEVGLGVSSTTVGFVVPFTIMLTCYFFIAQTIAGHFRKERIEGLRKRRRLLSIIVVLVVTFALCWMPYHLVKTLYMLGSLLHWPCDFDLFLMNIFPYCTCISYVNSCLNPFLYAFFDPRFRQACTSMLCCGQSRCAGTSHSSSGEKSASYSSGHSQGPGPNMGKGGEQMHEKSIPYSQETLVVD
# Assay: cell-based or functional assay
row,Binder,EC50 Human APJ Receptor
1,B1,0.722 nM
2,B2,1.66 nM
3,Palmitoyl-[γGlu][AEEA][AEEA][dQ]RP[NMeR][Cha]SHKG[Oic][Nle][Pip′][dPhe(4-Cl)]-OH [SEQ ID NO: 601],3.44 nM
4,B3,0.423 nM
5,B4,0.214 nM
6,Palmitoyl-[γGlu][AEEA][AEEA][dQ]RP[NMeR][Cha]SHKG[Oic][Nle][Pip′][αMeF]-OH [SEQ ID NO: 609],1.25 nM
7,Palmitoyl-[AC4Abu][AEEA][AEEA][dQ]RP[NMeR][Cha]SHKG[Pip′][Nle][d(β3hF)]-OH [SEQ ID NO: 574],0.652 nM
8,Palmitoyl-[AC4Abu][AEEA][AEEA][dQ]RP[NMeR][Cha]SHKG[Pip′][Nle]P[d(β3hF)]-OH [SEQ ID NO: 568],2.97 nM
9,B5,8.68 nM
10,Palmitoyl-[γGlu][AEEA][AEEA][dQ]RP[NMeR][Cha]SHKG[Oic][Nle][Nip][dPhe(4-Cl)]-OH [SEQ ID NO: 602],5.48 nM
11,Palmitoyl-[γGlu][AEEA][AEEA][dQ]RP[NMeR][Cha]SHKG[Oic][Nle][β3hP][dAMF]-OH [SEQ ID NO: 612],1.72 nM
12,B6,1.06 nM
13,B7,1.29 nM
14,Palmitoyl-[γGlu][AEEA][AEEA][dQ]RP[NMeR][Cha]SHKG[Oic][Nle]P[dAMF]-OH [SEQ ID NO: 607],0.0956 nM
15,B8,2.96 nM

# Molecular target: T2, rat APJ receptor (rat, UniProt Q9JHG3 1-377)
# T2 sequence (looked up): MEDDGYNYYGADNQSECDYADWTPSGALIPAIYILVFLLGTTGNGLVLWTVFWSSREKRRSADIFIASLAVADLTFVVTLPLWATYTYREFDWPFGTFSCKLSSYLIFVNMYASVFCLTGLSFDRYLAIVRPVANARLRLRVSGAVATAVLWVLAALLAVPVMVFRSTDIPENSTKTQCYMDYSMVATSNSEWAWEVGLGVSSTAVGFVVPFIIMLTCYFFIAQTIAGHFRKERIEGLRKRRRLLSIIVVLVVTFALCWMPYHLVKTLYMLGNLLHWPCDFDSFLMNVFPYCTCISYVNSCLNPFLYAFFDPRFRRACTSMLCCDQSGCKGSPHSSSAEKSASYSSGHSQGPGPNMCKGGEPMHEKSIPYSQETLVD
# Assay: cell-based or functional assay
row,Binder,EC50 Rat APJ Receptor
1,B1,1.57 nM
2,B2,4.46 nM
3,Palmitoyl-[γGlu][AEEA][AEEA][dQ]RP[NMeR][Cha]SHKG[Oic][Nle][Pip′][dPhe(4-Cl)]-OH [SEQ ID NO: 601],3.25 nM
4,B3,0.512 nM
5,B4,0.326 nM
6,Palmitoyl-[γGlu][AEEA][AEEA][dQ]RP[NMeR][Cha]SHKG[Oic][Nle][Pip′][αMeF]-OH [SEQ ID NO: 609],2.49 nM
7,Palmitoyl-[AC4Abu][AEEA][AEEA][dQ]RP[NMeR][Cha]SHKG[Pip′][Nle][d(β3hF)]-OH [SEQ ID NO: 574],2.83 nM
8,Palmitoyl-[AC4Abu][AEEA][AEEA][dQ]RP[NMeR][Cha]SHKG[Pip′][Nle]P[d(β3hF)]-OH [SEQ ID NO: 568],4.55 nM
9,B5,25.8 nM
10,Palmitoyl-[γGlu][AEEA][AEEA][dQ]RP[NMeR][Cha]SHKG[Oic][Nle][Nip][dPhe(4-Cl)]-OH [SEQ ID NO: 602],25.6 nM
11,Palmitoyl-[γGlu][AEEA][AEEA][dQ]RP[NMeR][Cha]SHKG[Oic][Nle][β3hP][dAMF]-OH [SEQ ID NO: 612],4.62 nM
12,B6,4.98 nM
13,B7,3.58 nM
14,Palmitoyl-[γGlu][AEEA][AEEA][dQ]RP[NMeR][Cha]SHKG[Oic][Nle]P[dAMF]-OH [SEQ ID NO: 607],0.55 nM
15,B8,32.3 nM
